Here are results for 1 molecule from publication PMC10976746, “Iguratimod, an allosteric inhibitor of macrophage migration inhibitory factor (MIF), prevents mortality and oxidative stress in a murine model of acetaminophen overdose” (Molecular Medicine, 2024).

The assay deals with T1, Human macrophage migration inhibitory factor (MIF) (human), P14174.
T1 chain: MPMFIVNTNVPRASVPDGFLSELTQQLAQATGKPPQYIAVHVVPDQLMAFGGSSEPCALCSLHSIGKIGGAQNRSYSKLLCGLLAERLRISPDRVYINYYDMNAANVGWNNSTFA
As to the kind of experiment: crystal structure; MIF (~18 mg/mL) co-crystallised with the small molecule T-614 at 1:3 protein-inhibitor molar ratio; hanging drop vapor diffusion; 20 mM Tris HCl pH 7.5, 2 M (NH4)2SO4, 3% 2-propanol; 20 C. As to conditions: remark: other sources report otherwise.

B1: Human macrophage migration inhibitory factor (MIF), P14174 1-115 (natural protein)
chain: MPMFIVNTNVPRASVPDGFLSELTQQLAQATGKPPQYIAVHVVPDQLMAFGGSSEPCALCSLHSIGKIGGAQNRSYSKLLCGLLAERLRISPDRVYINYYDMNAANVGWNNSTFA
For the molecule B1, the stoichiometry N was 3.

Broadly, the stoichiometry N is the number of molecules, sites or subunits per partner or assembly.
